Measured values: patent publication US20180280412A1

Biological target: Ub-AMC substrate

DUBs activity on Ub-AMC substrate: 3 fold
Substance: purified 26S proteasome (enzyme)
